B1: CD3.90 (AC3419) (bispecific antibody, V domains shown)
VH: EVQLLESGGGIVQPGGSLKLSCAASGFTFNTYAMNWVRQAPGKGLEWVARIRSKYNNYATYQADSVKDRFTISRDDSKNTVYLQMNNLKTEDTAVYYCVRHENFGNSYVSWFAHWGQGTLVTVSS
VL: ELVVTQEPSLTVSPGGTVTLTCRSSNGAVTSSNYANWVQQKPGQAPRGLIGGTNKRAPGTPARFSGSLLGGKAALTLSGVQPEDEAVYYCALWYPNLWVFGGGTKLTVL
B2: CD3.91 (AC3420) (bispecific antibody, V domains shown)
VH: B1 VH with Q62G
VL: B1 VL
B3: CD3.107 (AC3436) (bispecific antibody, V domains shown)
VH: B1 VH with Q62Y
VL: B1 VL with L68S
B4: CD3.108 (AC3437) (bispecific antibody, V domains shown)
VH: B1 VH with Q62Y
VL: B1 VL with L68K
B5: CD3.101 (AC3430) (bispecific antibody, V domains shown)
VH: B1 VH with Q62Y, N87S
VL: B1 VL
B6: CD3.100 (AC3429) (bispecific antibody, V domains shown)
VH: B1 VH with Q62Y, N87Q
VL: B1 VL
B7: CD3.93 (AC3422) (bispecific antibody, V domains shown)
VH: B1 VH with Q62Y, A63K
VL: B1 VL
B8: CD3.105 (AC3434) (bispecific antibody, V domains shown)
VH: B1 VH with Q62Y
VL: B1 VL with G70E
B9: CD3.98 (AC3427) (bispecific antibody, V domains shown)
VH: B1 VH with Q62Y, Y82S
VL: B1 VL
B10: CD3.94 (AC3423) (bispecific antibody, V domains shown)
VH: B1 VH with Q62Y, A63P
VL: B1 VL
B11: CD3.104 (AC3433) (bispecific antibody, V domains shown)
VH: B1 VH with Q62Y
VL: B1 VL with L69Q
B12: CD3.109 (AC3438) (bispecific antibody, V domains shown)
VH: B1 VH with Q62Y
VL: B1 VL with L68N
B13: CD3.95 (AC3424) (bispecific antibody, V domains shown)
VH: B1 VH with Q62Y, D68G
VL: B1 VL
B14: CD3.99 (AC3428) (bispecific antibody, V domains shown)
VH: B1 VH with Q62Y, N87E
VL: B1 VL
B15: CD3.97 (AC3426) (bispecific antibody, V domains shown)
VH: B1 VH with Q62Y, Y82G
VL: B1 VL
B16: CD3.102 (AC3431) (bispecific antibody, V domains shown)
VH: B1 VH with Q62Y, N87Y
VL: B1 VL
B17: CD3.106 (AC3435) (bispecific antibody, V domains shown)
VH: B1 VH with Q62Y
VL: B1 VL with L69D
B18: CD3.110 (AC3439) (bispecific antibody, V domains shown)
VH: B1 VH with Q62Y
VL: B1 VL with L68T
B19: CD3.96 (AC3425) (bispecific antibody, V domains shown)
VH: B1 VH with Q62Y, Y82D
VL: B1 VL
B20: CD3.92 (AC3421) (bispecific antibody, V domains shown)
VH: B1 VH with Q62W
VL: B1 VL

Positions count from the first letter of the chain named.

In this assay the target is CD3 (target of the Pool 1 CD3.23 screen). Kind of assay: Octet, crude lysate.
Sequence of CD3 (target of the Pool 1 CD3.23 screen) (P07766 23-126): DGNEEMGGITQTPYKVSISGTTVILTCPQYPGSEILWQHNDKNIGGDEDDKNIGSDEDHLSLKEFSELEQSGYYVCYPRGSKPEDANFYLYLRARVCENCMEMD
One may read the Kd as a measure of binding affinity in units of concentration. Low values mean a tighter complex, high ones a looser complex. As to B1, the Kd was 7.2 nM.

B2 returned a Kd of 8.3 nM. Under B3 stands 7.3 nM. Turning to B4, the Kd is 3.2 nM.

In the case of B5, the Kd came to 4.8 nM. Turning to B6, the Kd turned out to be 7.1 nM. Under B7 stands 8 nM; under B8, 4.9 nM; under B9, 9.6 nM. In turn, B10 gave a Kd of 8.2 nM. For B11 the value was 4.6 nM; for B12, 8.3 nM; for B13, 5.4 nM. In the case of B14, the Kd amounted to 5.9 nM. B15 returned a Kd of 121 nM. For B16 the value was 5.5 nM; for B17, 6.1 nM. For B18 the value was 8.9 nM. Under B19 stands 9.8 nM; under B20, 37.2 nM.

(Values after US20250188184A1.)
